Source: patent US20160347848A1 (AstraZeneca / MedImmune, published 2016)

B1: MEDI4736 (antibody, human IgG1, V domains shown)
VH: EVQLVESGGGLVQPGGSLRLSCAASGFTFSRYWMSWVRQAPGKGLEWVANIKQDGSEKYYVDSVKGRFTISRDNAKNSLYLQMNSLRAEDTAVYYCAREGGWFGELAFDYWGQGTLVTVSS
VL: EIVLTQSPGTLSLSPGERATLSCRASQRVSSSYLAWYQQKPGQAPRLLIYDASSRATGIPDRFSGSGSGTDFTLTISRLEPEDFAVYYCQQYGSLPWTFGQGTKVEIK
notes: also called 2.14H9OPT
B2: Y182A mutant mouse OX40L mouse IgG1 fusion protein control (Fc fusion, UniProt P43488 51-198, looked up)
chain: SSSPAKDPPIQRLRGAVTRCEDGQLFISSYKNEYQTMEVQNNSVVIKCDGLYIIYLKGSFFQEVKIDLHFREDHNPISIPMLNDGRRIVFTVVASLAFKDKVYLTVNAPDTLCEHLQINDGELIVVQLTPGACAPEGSYHSTVNQVPL
notes: also called OX40L FP Y182A; mOX40L FP Y182A; not shown: mouse IgG1 Fc domain and any linker or trimerization domain

How the values were obtained:
Experiment in all cases: not described
[1] = molecular target: mouse PD-L1 (mouse, UniProt Q9EP73 19-239, limits assumed)
[2] = molecular target: T1, mouse OX40 (mouse, UniProt P47741 20-272, limits assumed)
T1 construct: also called native mouse OX40
T1 sequence (looked up): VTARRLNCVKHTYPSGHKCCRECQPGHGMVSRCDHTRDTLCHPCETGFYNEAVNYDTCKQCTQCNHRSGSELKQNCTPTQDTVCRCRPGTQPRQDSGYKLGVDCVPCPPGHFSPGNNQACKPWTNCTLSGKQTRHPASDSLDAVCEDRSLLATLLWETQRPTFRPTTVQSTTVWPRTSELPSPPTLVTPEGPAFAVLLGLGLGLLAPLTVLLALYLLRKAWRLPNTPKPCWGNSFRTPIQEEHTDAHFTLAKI

[3] = molecular target: T2, human OX40 (human, UniProt P43489 29-277)
T2 construct: The form used for the Y182A statement ('native') is not described; also called native human OX40; CD134
T2 sequence: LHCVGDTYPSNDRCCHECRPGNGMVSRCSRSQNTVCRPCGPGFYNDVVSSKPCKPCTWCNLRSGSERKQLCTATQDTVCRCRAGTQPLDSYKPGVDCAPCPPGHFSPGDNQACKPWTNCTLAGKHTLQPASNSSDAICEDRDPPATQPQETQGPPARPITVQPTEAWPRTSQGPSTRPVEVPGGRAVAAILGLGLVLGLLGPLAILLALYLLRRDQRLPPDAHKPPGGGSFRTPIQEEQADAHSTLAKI

Sequence of mouse PD-L1 (Q9EP73 19-239 limits assumed): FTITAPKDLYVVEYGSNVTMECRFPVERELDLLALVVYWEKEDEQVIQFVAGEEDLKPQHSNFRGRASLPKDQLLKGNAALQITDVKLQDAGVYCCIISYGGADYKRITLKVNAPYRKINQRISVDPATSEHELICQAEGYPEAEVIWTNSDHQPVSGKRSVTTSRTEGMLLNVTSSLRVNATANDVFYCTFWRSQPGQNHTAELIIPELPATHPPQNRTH

| Binder | binding result [1] | binding result [2] | binding result [3] |
| --- | --- | --- | --- |
| B1 | no binding |  |  |
| B2 |  | no binding | no binding |
